The assay deals with microtubules (taxol-stabilised, of the MT cosedimentation assay) (bovine) (UniProt Q6B856). The assay can be described thus: co-sedimentation.

Turning to “alkaline phosphatase–treated WT CPC, P38283 1-698; P38991 1-367; P47134 1-954; Q3E7Y6 1-73”, the percent cosedimented with MTs was found to be 50%.

The values above are taken from PMC3135399.
